{"source": "patent US20220241413A1", "about": "“COMBINATION THERAPIES USING CD-38 ANTIBODIES” (Takeda Pharmaceutical Company Limited, priority 2019, published 2022)", "key": {"[1]": {"experiment": "Phase 1 study in healthy subjects (AB79-101): pharmacokinetics", "format": "in vivo, human", "settings": "single 0.06 mg/kg IV dose", "protocol": "In a phase 1 study in healthy subjects (Study AB79-101), AB79 reduced the levels of peripheral blood and natural killer (NK) cells >90% from baseline in all subjects receiving a single 0.06 mg/kg IV dose of AB79, with a maximum observed concentration (Cmax) of 0.1 μg/mL. (U.S. Pat. No. 8,362,211; U.S. International Patent Application Serial Nos. PCT/US2019/013547 and PCT/US2019/024431). […] Potent reduction of plasmablasts was observed across cohorts of patients in the RRMM trial (Study AB79-1501). […] Consequently, AB79 may be more efficient at eliminating cells expressing high levels of CD38, which could manifest as higher activity on tumor cells (e.g., improved and deeper response rates across a population of patients with myeloma).\nAB79 IV reduced the levels of peripheral blood NK cells >90% from baseline levels in all subjects receiving a single 0.06 mg/kg IV dose, with a Cmax of 0.1 μg/mL. […] As a potent and convenient second-generation anti-CD38 mAb, AB79 SC warranted therapeutic development for the treatment of multiple myeloma (MM)."}, "cynomolgus CD38": {"biological_target": "cynomolgus CD38 (Macaca fascicularis, UniProt Q5VAN0)", "sequence (Q5VAN0 whole entry)": "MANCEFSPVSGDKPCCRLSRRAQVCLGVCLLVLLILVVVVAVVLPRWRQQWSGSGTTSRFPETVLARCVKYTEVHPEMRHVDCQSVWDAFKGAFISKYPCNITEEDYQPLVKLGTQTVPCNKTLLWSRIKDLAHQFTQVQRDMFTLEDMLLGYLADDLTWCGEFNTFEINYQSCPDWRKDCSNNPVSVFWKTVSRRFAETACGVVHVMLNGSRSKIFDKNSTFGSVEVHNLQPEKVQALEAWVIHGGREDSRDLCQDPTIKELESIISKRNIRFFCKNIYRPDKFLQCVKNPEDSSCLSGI", "experiment": "Binding to cynomolgus CD38", "from_the_text": "Other Morphosys antibodies targeting CD38 are known (see, e.g., WO 2006/125640, which discloses four human antibodies: MOR03077, MOR03079, MOR03080, and MOR03100 and two murine antibodies: OKT10 and IB4). […] Moreover, the prior art antibodies have poor ADCC as well as CDC activity."}, "[2]": {"experiment": "AB79-1002 phase 1b study, AB79 with LenDex or VRd in NDMM: safety", "format": "in vivo", "from_the_text": "This is a Phase 1b, open-label, multicenter study to evaluate the safety, efficacy, tolerability, and pharmacokinetics (PK) of AB79 when added to 1 of 2 standard backbone regimens (lenalidomide plus dexamethasone [LenDex] or bortezomib [Velcade] plus lenalidomide and dexamethasone [VRd]) in adult patients with newly diagnosed multiple myeloma (NDMM) for whom stem cell transplantation (SCT) is not planned as initial therapy. The dose and schedule for the backbone regimens (LenDex and VRd) are given in accordance with product labeling or standard medical practice. Treatment cycles are 28 days until disease progression (PD) or unacceptable toxicity occurs. Treatment may be discontinued for other reasons listed below. AB79 is supplied by the sponsor. Bortezomib, dexamethasone, and lenalidomide are standard-of-care agents that are supplied from commercial sources.\n300 mg of AB79 is administered subcutaneously once weekly for 8 weeks (8 doses), once every 2 weeks for 16 weeks (8 doses), and once every 4 weeks thereafter until PD (in combination with backbone therapy). Backbone therapies (LenDex or VRd) are dosed in accordance with product labeling/local institutional practices. VRd is given with bortezomib weekly×3 weeks and LenDex in a standard 28 day cycle. Patients are evaluated from first dose of AB79 until 30 days after PD or until protocol-defined treatment discontinuation criteria are met.\nChanges in clinical laboratory parameters (standard hematology and chemistry), vital sign, electrocardiogram (ECG) monitoring, and Eastern Cooperative Oncology Group (ECOG) performance status that are judged by the investigator as clinically significant are recorded both on the source documentation and in the electronic case report (eCRF) as an AE. Toxicities that occur during the DLT evaluation period are used for the purposes of defining DLT and for subsequent cohort expansion or dose modification decisions. DLTs are based on AB79-related toxicities.\nThe study was designed to determine the recommended phase 2 dose (RP2D) and to provide a preliminary assessment of the AB79 combinations against NDMM. Parameters such as safety, tolerability, pharmacokinetics (PK), pharmacodynamics (PD), and disease response were assessed."}, "[3]": {"settings": "AB79 300 or 600 mg with LenDex or VRd, 10 patients enrolled"}}, "data": [{"substance": "AB79: anti-CD38 monoclonal IgG1 antibody; heavy chain SEQ ID NO:11, light chain SEQ ID NO:12", "values": [{"measurement": "maximum observed concentration (Cmax)", "setting": "[1]", "result": 100, "unit": "ng/mL"}, {"measurement": "binding to cynomolgus CD38", "setting": "cynomolgus CD38", "result": "binds"}, {"measurement": "TEAE regardless of causality: abdominal pain", "setting": "[2]; [3]", "result": 2, "unit": "patients"}, {"measurement": "TEAE regardless of causality: chills", "setting": "[2]; [3]", "result": 2, "unit": "patients"}, {"measurement": "TEAE regardless of causality: decreased lymphocyte count", "setting": "[2]; [3]", "result": 5, "unit": "patients"}, {"measurement": "TEAE regardless of causality: diarrhea", "setting": "[2]; [3]", "result": 3, "unit": "patients"}, {"measurement": "TEAE regardless of causality: dysgeusia", "setting": "[2]; [3]", "result": 2, "unit": "patients"}, {"measurement": "TEAE regardless of causality: fatigue", "setting": "[2]; [3]", "result": 2, "unit": "patients"}, {"measurement": "TEAE regardless of causality: muscle spasms", "setting": "[2]; [3]", "result": 2, "unit": "patients"}, {"measurement": "TEAE regardless of causality: nausea", "setting": "[2]; [3]", "result": 2, "unit": "patients"}, {"measurement": "TEAE regardless of causality: neutropenia", "setting": "[2]; [3]", "result": 2, "unit": "patients"}, {"measurement": "TEAE regardless of causality: peripheral edema", "setting": "[2]; [3]", "result": 2, "unit": "patients"}, {"measurement": "TEAE regardless of causality: sinusitis", "setting": "[2]; [3]", "result": 2, "unit": "patients"}, {"measurement": "dose-limiting toxicities (DLTs)", "setting": "[2]; AB79 with LenDex or VRd", "result": "No DLTs"}, {"measurement": "drug-related serious AEs, AEs that resulted in any drug discontinuation, or on-study deaths", "setting": "[2]; AB79 with LenDex or VRd", "result": "no"}]}]}
